Reference: patent publication US20250353917A1 (SYSTIMMUNE, published 2025)

What was measured:
[1] = biological target: T1, soluble recombinant extracellular domain of human EGFR (human, UniProt P00533 25-645); assay: BLI of scFv-monoFc proteins, against wild-type cetuximab scFv-monoFc
T1 construct: extracellular domain
Protocol: (§1) Fc-containing protein was captured to anti-human Fc (AHC) sensor tips by loading for 180 seconds at 10 μg/ml. Alternatively, His-tagged proteins were covalently coupled at 10 ug/ml to AR2G tips using manufacturer protocol. After a 60-second baseline step, a 180- to 300-second association phase with serial dilutions (0-200 nM; 1:2.5 dilution factor) or a single 100 nM concentration of purified human EGFR in assay buffer (phosphate-buffered saline containing 0.1% BSA, 0.05% Tween20) was performed, followed by a 300- to 600—second dissociation phase in assay buffer. Regeneration was achieved using 10 mM glycine, pH 1.5. Binding curves were globally fit to a 1:1 model to extract the dissociation constants, KD. Binding kinetics for each protein were assessed in duplicate, with tabulated values reported as average±standard deviation.
(§2) The monoFc domain was used to load proteins onto anti-human Fc (AHC) sensors, followed by binding of scFv to serial dilutions of the extracellular domain of human EGFR.

[2] = biological target: T1, soluble recombinant extracellular …; assay: BLI (Octet), scFv-monoFc on AHC sensors, serial dilutions of EGFR extracellular domain;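 also: EGFR analyte titrated 0 to 200 nM, association 180–300 s then dissociation 300–600 s in PBS with 0.1% BSA and 0.05% Tween20, global 1:1 fit, duplicate means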
Protocol: as §1, §2

fold decrease in binding affinity [1] [fold] | Kd [2] [nM] | koff [2] [s⁻¹] | kon [2] [M⁻¹ s⁻¹] | Binder
2 | 6.79 | 0.00393 | 571000 | SI-79SF5 (Fc fusion, also called H8; H8 scFv-monoFc) DIVLTQSPSSLSVSPGERVTISCRASQSIGTNIHWYQQKPGQAPRLLIKYASESISGIPSRFSGSGSGTDFTLTISSVESEDFAVYYCQQNNNWPTTFGQGTKLEIKGGGGSGGGGSGGGGSGGGGSQVQLVESGPGLVQPSGSLSLTCTVSGFSLTNYGVHWVRQAPGKGLEWVGVIWSGGNTDYNTPFTSRFTISKDNSKNQVYLKMNSLRAEDTAVYYCARALTYYDYEFAYWGQGTLVTVSSGSGGSPVAGPSVFLFPPKPKDTLMISRTPEVTCVVVDVSHEDPEVKFNWYVDGVEVHNAKTKPREEQYASTYRVVSVLTVLHQDWLNGKEYKCKVSNKALPAPIEKTISKAKGQPREPQVYTLPPSRDELTKNQVSLRCHVKGFYPSDIAVEWESNGQPENNYKTTKPVLDSDGSFFLYSTLTVDKSRWQQGNVFSCSVLHEALHNHYTQKSLSLSPGK
2 | 6.92 | 0.00395 | 563000 | SI-79SF7 (Fc fusion, also called H9; H9 scFv-monoFc) DIVLTQSPSSLSVSPGERVTISCRASQSIGTNIHWYQQKPGQAPRLLIKYASESISGIPSRFSGSGSGTDFTLTISSVESEDFAVYYCQQNNNWPTTFGQGTKLTVLGGGGSGGGGSGGGGSGGGGSQVQLVESGPGLVQPSGSLSLTCTVSGFSLTNYGVHWVRQAPGKGLEWVGVIWSGGNTDYNTPFTSRFTISKDNSKNQVYLKMNSLRAEDTAVYYCARALTYYDYEFAYWGQGTLVTVSSGSGGSPVAGPSVFLFPPKPKDTLMISRTPEVTCVVVDVSHEDPEVKFNWYVDGVEVHNAKTKPREEQYASTYRVVSVLTVLHQDWLNGKEYKCKVSNKALPAPIEKTISKAKGQPREPQVYTLPPSRDELTKNQVSLRCHVKGFYPSDIAVEWESNGQPENNYKTTKPVLDSDGSFFLYSTLTVDKSRWQQGNVFSCSVLHEALHNHYTQKSLSLSPGK
– | 3.05 | 0.00139 | 450000 | SI-79SF4 (Fc fusion, also called H4; H4 scFv-monoFc) EIVLTQSPSTLSVSPGERATFSCRASQSIGTNIHWYQQKPGKPPRLLIKYASESISGIPDRFSGSGSGTEFTLTISSVQSEDFAVYYCQQNNNWPTTFGPGTKLELKGGGGSGGGGSGGGGSGGGGSQVQLQQSGPGLVKPSETLSITCTVSGFSLTNYGVHWIRQAPGKGLEWLGVIWSGGNTDYNTPFTSRFTITKDNSKNQVYFKLRSVRADDTAIYYCARALTYYDYEFAYWGQGTLVTVSSGSGGSPVAGPSVFLFPPKPKDTLMISRTPEVTCVVVDVSHEDPEVKFNWYVDGVEVHNAKTKPREEQYASTYRVVSVLTVLHQDWLNGKEYKCKVSNKALPAPIEKTISKAKGQPREPQVYTLPPSRDELTKNQVSLRCHVKGFYPSDIAVEWESNGQPENNYKTTKPVLDSDGSFFLYSTLTVDKSRWQQGNVFSCSVLHEALHNHYTQKSLSLSPGK
– | 3.08 | 0.00151 | 481000 | SI-79SF12 (Fc fusion, also called H2; H2 scFv-monoFc) EIVLTQSPSILSVSPGERATFSCRASQSIGTNIHWYQQRPGKPPRLLIKYASESISGIPSRFSGSGSGTEFTLTITSVQSEDIAVYYCQQNNNWPTTFGPGTKLELKGGGGSGGGGSGGGGSGGGGSQVQLQQSGPGLVKPSQTLSITCTVSGFSLTNYGVHWIRQAPGKGLEWLGVIWSGGNTDYNTPFTSRFTISKDNSKNQVYFKLRSLRAEDTAIYYCARALTYYDYEFAYWGQGTLVTVSSGSGGSPVAGPSVFLFPPKPKDTLMISRTPEVTCVVVDVSHEDPEVKFNWYVDGVEVHNAKTKPREEQYASTYRVVSVLTVLHQDWLNGKEYKCKVSNKALPAPIEKTISKAKGQPREPQVYTLPPSRDELTKNQVSLRCHVKGFYPSDIAVEWESNGQPENNYKTTKPVLDSDGSFFLYSTLTVDKSRWQQGNVFSCSVLHEALHNHYTQKSLSLSPGK
– | 3.45 | 0.00177 | 504000 | SI-79SF10 (Fc fusion, also called H3; H3 scFv-monoFc) EIVLTQSPSILSVSPGERVTFSCRASQSIGTNIHWYQQRPGKPPRLLIKYASESISGIPARFSGSGSGTEFTLTISSVQSEDFATYYCQQNNNWPTTFGPGTKLELKGGGGSGGGGSGGGGSGGGGSQVQLVQSGPGLVKPSQTLSLTCTVSGFSLTNYGVHWIRQAPGKGLEWLGVIWSGGNTDYNTPFTSRFTITKDNSKNQVYFKLRSVRSEDTAVYYCARALTYYDYEFAYWGQGTLVTVSSGSGGSPVAGPSVFLFPPKPKDTLMISRTPEVTCVVVDVSHEDPEVKFNWYVDGVEVHNAKTKPREEQYASTYRVVSVLTVLHQDWLNGKEYKCKVSNKALPAPIEKTISKAKGQPREPQVYTLPPSRDELTKNQVSLRCHVKGFYPSDIAVEWESNGQPENNYKTTKPVLDSDGSFFLYSTLTVDKSRWQQGNVFSCSVLHEALHNHYTQKSLSLSPGK
– | 3.14 | 0.00143 | 447000 | SI-79SF6 (Fc fusion, also called H7; H7 scFv-monoFc) EIVLTQSPSTLSVSPGERATFSCRASQSIGTNIHWYQQKPGKPPRLLIKYASESISGIPDRFSGSGSGTEFTLTISSVQSEDFAVYYCQQNNNWPTTFGPGTKLTVLGGGGSGGGGSGGGGSGGGGSQVQLQQSGPGLVKPSETLSITCTVSGFSLTNYGVHWIRQAPGKGLEWLGVIWSGGNTDYNTPFTSRFTITKDNSKNQVYFKLRSVRADDTAIYYCARALTYYDYEFAYWGQGTLVTVSSGSGGSPVAGPSVFLFPPKPKDTLMISRTPEVTCVVVDVSHEDPEVKFNWYVDGVEVHNAKTKPREEQYASTYRVVSVLTVLHQDWLNGKEYKCKVSNKALPAPIEKTISKAKGQPREPQVYTLPPSRDELTKNQVSLRCHVKGFYPSDIAVEWESNGQPENNYKTTKPVLDSDGSFFLYSTLTVDKSRWQQGNVFSCSVLHEALHNHYTQKSLSLSPGK
– | 3.42 | 0.00165 | 476000 | SI-79SF9 (Fc fusion, also called H6; H6 scFv-monoFc) EIVLTQSPSTLSVSPGERVSFSCRASQSIGTNIHWYQQRTGQPPRLLIKYASESISGIPARFSGSGSGTEFTLTITSVQSEDFAVYYCQQNNNWPTTFGQGTKLDIKGGGGSGGGGSGGGGSGGGGSQVQLLQSGPGLVKPSETLSITCTVSGFSLTNYGVHWIRQAPGKGLEWIGVIWSGGNTDYNTPFTSRFTITKDNSKNQVFFKLRSVRAEDTALYYCARALTYYDYEFAYWGQGTLVTVSSGSGGSPVAGPSVFLFPPKPKDTLMISRTPEVTCVVVDVSHEDPEVKFNWYVDGVEVHNAKTKPREEQYASTYRVVSVLTVLHQDWLNGKEYKCKVSNKALPAPIEKTISKAKGQPREPQVYTLPPSRDELTKNQVSLRCHVKGFYPSDIAVEWESNGQPENNYKTTKPVLDSDGSFFLYSTLTVDKSRWQQGNVFSCSVLHEALHNHYTQKSLSLSPGK
– | 2.27 | 0.0011 | 474000 | SI-79SF11 (Fc fusion, also called H5; H5 scFv-monoFc) EIQLTQSPSTLSVSPGERATFSCRASQSIGTNIHWYQQKTGQPPRLLIKYASESISGIPDRFSGSGSGTEFTLSITSVQSEDFAVYYCQQNNNWPTTFGPGTKLEILGGGGSGGGGSGGGGSGGGGSQVQLLQSGPGLVKPSETLSLTCTVSGFSLTNYGVHWIRQAPGKGLEWIGVIWSGGNTDYNTPFTSRFTISKDNSKNQVYFKLRSLTSEDTAIYYCARALTYYDYEFAYWGQGTLVTVSSGSGGSPVAGPSVFLFPPKPKDTLMISRTPEVTCVVVDVSHEDPEVKFNWYVDGVEVHNAKTKPREEQYASTYRVVSVLTVLHQDWLNGKEYKCKVSNKALPAPIEKTISKAKGQPREPQVYTLPPSRDELTKNQVSLRCHVKGFYPSDIAVEWESNGQPENNYKTTKPVLDSDGSFFLYSTLTVDKSRWQQGNVFSCSVLHEALHNHYTQKSLSLSPGK
2 | 6.77 | 0.00458 | 665000 | SI-79SF8 (Fc fusion, also called H10; H10 scFv-monoFc) DIVLTQSPATLSVSPGERATLSCRASQSIGTNIHWYQQKPGQAPRLLIKYASESISGIPSRFSGSGSGTDFTLTISSVQSEDFAVYYCQQNNNWPTTFGQGTKLEIKGGGGSGGGGSGGGGSGGGGSQVQLQESGPGLVKPSESLSLTCTVSGFSLTNYGVHWVRQPPGKGLEWIGVIWSGGNTDYNTPFTSRVTISKDNSKNQVSLKMNSLTAADTAVYYCARALTYYDYEFAYWGQGTLVTVSSGSGGSPVAGPSVFLFPPKPKDTLMISRTPEVTCVVVDVSHEDPEVKFNWYVDGVEVHNAKTKPREEQYASTYRVVSVLTVLHQDWLNGKEYKCKVSNKALPAPIEKTISKAKGQPREPQVYTLPPSRDELTKNQVSLRCHVKGFYPSDIAVEWESNGQPENNYKTTKPVLDSDGSFFLYSTLTVDKSRWQQGNVFSCSVLHEALHNHYTQKSLSLSPGK
2 | 6.74 | 0.00454 | 661000 | SI-79SF13 (Fc fusion, also called H11; H11 scFv-monoFc) DIVLTQSPATLSVSPGERATLSCRASQSIGTNIHWYQQKPGQAPRLLIKYASESISGIPSRFSGSGSGTDFTLTISSVQSEDFAVYYCQQNNNWPTTFGQGTKLTVLGGGGSGGGGSGGGGSGGGGSQVQLQESGPGLVKPSESLSLTCTVSGFSLTNYGVHWVRQPPGKGLEWIGVIWSGGNTDYNTPFTSRVTISKDNSKNQVSLKMNSLTAADTAVYYCARALTYYDYEFAYWGQGTLVTVSSGSGGSPVAGPSVFLFPPKPKDTLMISRTPEVTCVVVDVSHEDPEVKFNWYVDGVEVHNAKTKPREEQYASTYRVVSVLTVLHQDWLNGKEYKCKVSNKALPAPIEKTISKAKGQPREPQVYTLPPSRDELTKNQVSLRCHVKGFYPSDIAVEWESNGQPENNYKTTKPVLDSDGSFFLYSTLTVDKSRWQQGNVFSCSVLHEALHNHYTQKSLSLSPGK
4 | 13.1 | 0.00927 | 718000 | SI-79SF3 (Fc fusion, also called H1; H1 scFv-monoFc) EIVMTQSPSTLSASVGDRVIITCRASQSIGTNIHWYQQKPGKAPKLLIYYASESISGIPSRFSGSGSGAEFTLTISSLQPDDFATYYCQQNNNWPTTFGQGTKLTVLGGGGSGGGGSGGGGSGGGGSEVQLVESGGGLVQPGGSLRLSCKVSGFSLTNYGVHWVRQAPGKGLEWVGVIWSGGNTDYNTPFTSRFTISRDTSKNTVYLQMNSLRAEDTAVYYCARALTYYDYEFAYWGQGTLVTVSSGSGGSPVAGPSVFLFPPKPKDTLMISRTPEVTCVVVDVSHEDPEVKFNWYVDGVEVHNAKTKPREEQYASTYRVVSVLTVLHQDWLNGKEYKCKVSNKALPAPIEKTISKAKGQPREPQVYTLPPSRDELTKNQVSLRCHVKGFYPSDIAVEWESNGQPENNYKTTKPVLDSDGSFFLYSTLTVDKSRWQQGNVFSCSVLHEALHNHYTQKSLSLSPGK
